Laboratory results as given in patent US20060229273A1.

Target: hKGF receptor on the surface of PC-3 prostatic carcinoma cells (UniProt P21802)
Assay: saturation binding of 125I-hKGF on PC-3 cells, Scatchard analysis

B1: Recombinant human Keratinocyte Growth Factor (hKGF) (ligand, UniProt P21781 32-194, looked up)
chain: CNDMTPEQMATNVNCSSPERHTRSYDYMEGGDIRVRRLFCRTQWYLRIDKRGKVKGTQEMKNNYNIMEIRTVAVGIVAIKGVESEFYLAMNKEGKLYAKKECNEDCNFKELILENHYNTYASAKWTHNGGEMFVALNQKGIPVRGKKTKKEQKTAHFLPMAIT
  specific hKGF binding sites per cell (sites per cell): 5000
